# Test results taken from patent publication US11472844B2, “Peptidomimetics, method of synthesis and uses thereof” (priority 2017, dated 2022).
# Where two headings read alike, the source gives them in different places.
# Legend:
# human colonic mucus = assay: Fluorescent labelling of human colonic mucus layer; type: binding; conditions: 1 μg/mL
# Method: (§1) Colon explant surgical collection. In summary, human colon segments (ascending, descending, and sigmoid colon) were obtained from fully informed patients undergoing surgery for colon carcinoma and were analyzed anonymously. Patient written consent was obtained, according to the French bioethics law. None of the patients had undergone radiotherapy or chemotherapy. According to the pathologist's examination rules for the longitudinally bisected colon, a healthy segment of tissue, which was distant from the tumor region and devoid of metastatic cells, was removed. Tissues were processed according to the French Government guidelines for research on human tissues and the French Bioethics Act with the authorization no RBM 2009-50.
# Fixation and staining procedures. For microscopy studies, purified or cultured cells and polymerized lactoferrin were resuspended onto 24-well plates containing 12 mm coverslips in RMPI 1640+10 mM Hepes (when cultured in the autologous plasma) and centrifuged at 300×g for 10 min. Culture media were removed and cells were fixed in 4% Paraformaldehyde (PFA) for two hours. Fixed cells were washed three times in PBS+0.1% saponin (Sigma-Aldrich), prior immunolabeling with primary antibodies in the same buffer for 1 hour (Triton 0.1% can alternatively be used for cell permeabilization). After three additional washes in PBS+0.1% saponin, secondary antibodies and fluorescent markers were incubated for one hour. […]
# (§2) Antibodies, fluorescent markers. For immunofluorescence assay, lactoferrin was detected with a mouse anti-lactoferrin primary monoclonal antibody (Hycult biotech, clone 265-1K1, 1:50 dilution) and an anti-mouse-FITC conjugated secondary antibody (1:1000). Nuclei were detected with DAPI (Life Technologies), Lyophilized MUB40 peptides (MUB40#1 (SEQ ID NO: 3)-Cy5, MUB40#2 (SEQ ID NO: 4)-Cy5, MUB40#3 (SEQ ID NO: 5)-Cy5, MUB40#4 (SEQ ID NO: 6)-Cy5, MUB40#1 (SEQ ID NO: 3)-Dylight, RI-MUB40 (SEQ ID NO: 2)-Cy5, and RI-MUB40 (SEQ ID NO: 2)-Biotin) were solubilized in a phosphate buffer pH8 at a 1 mg/mL concentration and used at a 1:1000 dilution. […]
# living human neutrophils = assay: Live microscopy of neutrophils infected with Shigella flexneri; type: cell-based; conditions: live cells
# Method: Neutrophil infection. Human purified neutrophils were cultured in glass-bottom dishes (Mattek) for live fluorescent microscopy in a RMPI 1640 (Life Technologies) culture medium supplemented with 10% of heat inactivated Human Serum (Sigma-Aldrich). Neutrophils (5.10^5 cell/mL in 2 mL) were infected with exponentially-grown Shigella flexneri 5a pGFP at a Multiplicity Of Infection (MOI) 20 in RMPI 1640 (Life Technologies) culture medium supplemented with 10 mM Hepes (Life Technologies) at 37° C. Infected neutrophils were centrifuged at 2000 rpm for 10 min prior imaging.
# Live epifluorescence microscopy. Viable neutrophils infected with S. flexneri pGFP were imaged on a Definite focus live microscope (Zeiss) equipped with a temperature control chamber (37° C.) and a 63× oil immersion objective. Images were acquired every 60 s. Z-stack images were taken with […] step-size increments. Obtained Z-stack images were processed with Fiji software to generate a Movie and the corresponding extracted images are shown in FIG. 16a.
# trypsin = trypsin (Sus scrofa, UniProt P00761); conditions: trypsin digestion, 37°C, pH8, followed up to 24 h
# Sequence of trypsin (P00761 9-231): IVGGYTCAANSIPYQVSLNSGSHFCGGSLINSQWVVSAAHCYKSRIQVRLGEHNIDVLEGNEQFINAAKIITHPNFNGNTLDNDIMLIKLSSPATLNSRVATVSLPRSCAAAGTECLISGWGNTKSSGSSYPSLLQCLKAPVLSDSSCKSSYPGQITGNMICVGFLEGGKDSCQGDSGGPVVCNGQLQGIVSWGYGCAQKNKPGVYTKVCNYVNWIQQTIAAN
# Method: Trypsin proteolysis. MUB40 (SEQ ID NO: 3)-Cy5 and RI-MUB40 (SEQ ID NO: 2)-Cy5 were dissolved in 50 mM ammonium bicarbonate, pH 8. Prior to digestion and owing to the propensity of maleimide derivatives to undergo ring-opening in a basic environment (Fontaine et al., 2015), we incubated both peptides at 37° C. overnight. Ring-opening completion was checked before trypsin addition. […] Lyophilized trypsin (Thermo scientific) was reconstituted using 50 mM acetic acid, diluted with 50 mM ammonium bicarbonate and added to the peptide solution so as to obtain a final peptide concentration of 0.25 mg/mL and a protease to protein ratio of 1:20 (w/w). Samples were directly incubated on the injection sampler thermostated at 37° c. HPLC and LC-MS analyses were performed as previously described above, applying a 15% to 40% linear gradient of acetonitrile in 10 mM ammonium acetate over 20 minutes.
# Hydrolysis experiments were done in solution at 37° c., pH8 and monitored by HPLC by measuring the peak area of the remaining intact peptides.
# [1] = Analytical gel filtration (size exclusion chromatography); type: physicochemical; conditions: for relative masses estimated from standard proteins' elution volume: 10 μg/ml in 20 mM phosphate buffer; for relative masses estimated from standard proteins' elution volume / experimental Mr: 150 mM NaCl, pH7.4; for experimental Mr: 20 mM phosphate buffer; for oligomeric organization: phosphate buffer, vs theoretical MW
# Method: Size Exclusion Chromatography. Gel filtration was performed using an Agilent 1100 system (Agilent Technologies; Palo Alto, Calif., USA) and monitored by absorbance at 280 nm. MUB40 peptides were solubilized in the gel filtration buffer (20 mM phosphate buffer, 150 mM NaCl, pH7.4) at a concentration of 10 μg/ml, 100 μg/ml, or 1 mg/ml), separately injected on a Yarra™ 3μ SEC-2000 300×7.8 mm column (Phenomenex, Le Pecq, France), and eluted at a 0.5 ml/min flow rate. The column was calibrated with a mixture of standards proteins (ribonuclease A, 13.7 kDa; carbonic anhydrase 29 kDa; ovalbumin 44 kDa; GE Healthcare) complemented with a custom synthetic peptide of our own library (peptide x, 5.1 kDa; Institut Pasteur). The logarithm of the molecular weights were plotted versus the corresponding partition coefficients (Kay=(Ve−Vo)/(Vc−Vo); Ve, elution volume; Vo, void volume; Vc, geometric column volume), giving log(Mr)=2,3108−2,2361Kav as a calibration curve equation.
# [2] = test system: colonic mucinous carcinoma; assay: Mucinous carcinoma immunofluorescent staining; set-up: species or system human; conditions: together with anti-Muc2 antibody, 1 μg/mL
# Method: FIG. 3. Mucinous carcinoma immunofluorescent staining with MUB40 #1 (SEQ ID NO: 3)-Cy5 (MUB40-Cy5) and anti-Muc2 antibody (with a secondary antibody conjugated with FITC).
# Muc2 was stained with an anti-Mucin2 antibody (green). Tissue was additionally stained with MUB40-Cy5 (1 μg/mL, magenta). DNA was stained with Dapi (blue).
# [3] = test system: Colonic goblet cell granules; assay: Fluorescent labelling of colonic goblet cell granules on fixed slides; type: cell-based, human; conditions: 1 μg/mL
# Method: as §1, §2
# [4] = Coïc et al., 2012; cited from earlier work
Molecule,relative masses estimated from standard proteins' elution volume [1],experimental Mr [1] [kDa],oligomeric organization [1],other results
CC[C@@H](C)[C@@H](NC(=O)[C@@H](CCCCN)NC(=O)[C@@H](CCCCN)NC(=O)[C@@H](Cc1ccccc1)NC(=O)[C@@H](CCC(=O)O)NC(=O)CNC(=O)[C@@H](CC(=O)O)NC(=O)CNC(=O)[C@@H](Cc1ccc(O)cc1)NC(=O)[C@@H](CCC(=O)O)NC(=O)[C@@H](CC(C)C)NC(=O)[C@@H](Cc1ccccc1)NC(=O)[C@@H](CCCCN)NC(=O)[C@@H](CC(=O)O)NC(=O)[C@@H](CC(N)=O)NC(=O)[C@@H](Cc1ccccc1)NC(=O)[C@H]1CCCN1C(=O)[C@@H](C)NC(=O)CNC(=O)[C@@H](CCC(=O)O)NC(=O)[C@@H](CCCCN)NC(=O)[C@@H](Cc1ccccc1)NC(=O)[C@@H](CC(=O)O)NC(=O)[C@@H](CC(N)=O)NC(=O)[C@@H](CC(=O)O)NC(=O)[C@@H](CC(=O)O)NC(=O)[C@H](NC(=O)[C@@H](CC(N)=O)NC(=O)[C@@H](CC(=O)O)NC(=O)[C@@H](CCC(N)=O)NC(=O)[C@@H](Cc1ccccc1)NC(=O)[C@@H](Cc1ccc(O)cc1)NC(=O)[C@H](NC(=O)[C@H](NC(=O)[C@H](NC(=O)[C@@H](Cc1ccccc1)NC(=O)[C@@H](CS)NC(C)=O)[C@H](C)CC)C(C)C)[C@H](C)O)[C@H](C)O)C(=O)NCC(=O)N[C@H](CCC(=O)O)C(=O)N[C@H](C)C(=O)N[C@@H](C(N)=O)[C@H](C)O [RI-MUB40],–,–,–,labelling of / binding to human colonic mucus (human colonic mucus): validated; crossing of plasma membrane of living cells (living human neutrophils): do not cross plasma membranes
"MUB40#1: 40-amino acid L-peptide, MUB70 C-terminal part, with N-ter added cysteine; L counterpart of RI-MUB40 (CTAEGIKKFEGDGYELFKDNFPAGEKFDNDDTNDQFYTVIF; MUB40-1 probe with Cysteine at N-terminal extremity)",15.9,15.9,trimer,degradation by trypsin (in words) (trypsin; listed as MUB40): rapidly degraded; degradation by trypsin (in words) (trypsin; listed as MUB40 #1): almost completely degraded within 3 h; labelling of colonic mucinous carcinoma [2]: similarly labelled
MUB40#4: overlapping 40-amino acid peptide covering the MUB70 sequence (CVHVQYIDGETDQMLRQDDLDGYTDETIPYSTAEGIKKFEG; MUB40-4 probe with Cysteine at N terminal extremity),20.4,20.4,tetramers,–
MUB40#2: overlapping 40-amino acid peptide covering the MUB70 sequence (CGYTDETIPYSTAEGIKKFEGDGYELFKDNFPAGEKFDNDD; MUB40-2 probe with Cysteine at N-terminal extremity),22.0,22.0,tetramers,–
MUB40#3: overlapping 40-amino acid peptide covering the MUB70 sequence (CDQMLRQDDLDGYTDETIPYSTAEGIKKFEGDGYELFKDNF; MUB40-3 probe with Cysteine at N terminal extremity),20.5,20.5,tetramers,–
"MUB70-Cy5: MUB70 (SEQ ID NO: 11) conjugated to Cy5 (conjugate, listed as Lactobacillus reuteri, also: conjugated to Cy5 (site not given here)) VHVQYIDGETDQMLRQDDLDGYTDETIPYSTAEGIKKFEGDGYELFKDNFPAGEKFDNDDTNDQFYTVIF",–,–,–,labelling of colonic goblet cell granules [3]: not the case
"MUB70: 70 AA peptidic marker of human colonic mucus from L. reuteri MUcus Binding Associated Domains (peptide, listed as Lactobacillus reuteri) VHVQYIDGETDQMLRQDDLDGYTDETIPYSTAEGIKKFEGDGYELFKDNFPAGEKFDNDDTNDQFYTVIF",–,–,–,oligomeric organization [4]: trimer
